Measured values from patent US20090061451A1.
pKd: −log10 of the molar value.

Target: mouse monoclonal PSA antibody
Assay: SPR, BIAcore 3000, antibody immobilised on CM5 chip

pKd	Substance
7.74	PSA-GOx complex (from UniProt P07288 25-261; P13006 23-605)
9.15	Prostate specific antigen (PSA) (from UniProt P07288 25-261) (enzyme)
